The source of these data is EP1343909B1.

A value given as a limit tells only on which side of the number the result lay.

The assay deals with plasminogen. Kind of assay: cell-based or functional assay.

As for “Bacteriophages which harbored K2S on gp3 (K2S-φ) (from UniProt P00750 209-562)”, the fibrinogen-dependent enzymatic activity (amidolytic assay with plasminogen and S-2251) was less than 0.25 IU/ml.
